Results from PMC11417369, “DNA sequence and chromatin differentiate sequence-specific transcription factor binding in the human malaria parasite Plasmodium falciparum”.

T1: SIP2 D1 (Plasmodium falciparum, UniProt C6KSN9 177-235)
T1 sequence: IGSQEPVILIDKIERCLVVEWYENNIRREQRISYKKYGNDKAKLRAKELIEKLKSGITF

B1: GTGCAC_negctrl_site374 (dsDNA)
DNA 1: TTTCCGGTAATATGGAGATATATGTGGGTTTTTTTT
DNA 2: AAAAAAAACCCACATATATCTCCATATTACCGGAAA
B2: GTGCAC_negctrl_site106 (dsDNA)
DNA 1: AAATAAAATAATTATAATACTAAAAATAATACATAA
DNA 2: TTATGTATTATTTTTAGTATTATAATTATTTTATTT
B3: GTGCAC_negctrl_site606 (dsDNA)
DNA 1: TTTAATTTTACATGAGAAACATATTACAATAAAATA
DNA 2: TATTTTATTGTAATATGTTTCTCATGTAAAATTAAA
B4: GTGCAC_negctrl_site665 (dsDNA)
DNA 1: TTTTAAATCTTATATTCCCCACATAAATAGCTCTCT
DNA 2: AGAGAGCTATTTATGTGGGGAATATAAGATTTAAAA
B5: GTGCAC_negctrl_site277 (dsDNA)
DNA 1: TTTTTTAAATATTATTTTTATGAGTAAATATATTAT
DNA 2: ATAATATATTTACTCATAAAAATAATATTTAAAAAA
B6: GTGCAC_negctrl_site563 (dsDNA)
DNA 1: ATTCAATAATTGTTTTTTTTCTTTTTGTTTTTGTTT
DNA 2: AAACAAAAACAAAAAGAAAAAAAACAATTATTGAAT
B7: GTGCAC_negctrl_site349 (dsDNA)
DNA 1: AAATAAAAATAAAATAAAATAAAATTAAATGGGAAT
DNA 2: ATTCCCATTTAATTTTATTTTATTTTATTTTTATTT
B8: GTGCAC_negctrl_site659 (dsDNA)
DNA 1: TTGTTAATATGATAAAAGAGGAATATTCTCTTCCTA
DNA 2: TAGGAAGAGAATATTCCTCTTTTATCATATTAACAA
B9: GTGCAC_negctrl_site567 (dsDNA)
DNA 1: AATATAAACATAGATAGATAAATAAATAAATAAACA
DNA 2: TGTTTATTTATTTATTTATCTATCTATGTTTATATT
B10: GTGCAC_negctrl_site608 (dsDNA)
DNA 1: TAATGAGGAAAAAGTGTGTTAAGATTTTATAATTTA
DNA 2: TAAATTATAAAATCTTAACACACTTTTTCCTCATTA
B11: GTGCAC_negctrl_site403 (dsDNA)
DNA 1: TATTTCATCTTTTAAGAAGGTACCCATATGTCATAT
DNA 2: ATATGACATATGGGTACCTTCTTAAAAGATGAAATA
B12: GTGCAC_negctrl_site292 (dsDNA)
DNA 1: TTACGTATGTATTATGTTGTATATGAAATTAAAAAA
DNA 2: TTTTTTAATTTCATATACAACATAATACATACGTAA
B13: GTGCAC_negctrl_site578 (dsDNA)
DNA 1: TTTTATTTTATTCAATTTTTACTTTTATAAAAATAT
DNA 2: ATATTTTTATAAAAGTAAAAATTGAATAAAATAAAA
B14: GTGCAC_site10258 (dsDNA)
DNA 1: GCGTGTGTACAATGAGTGCATATCTAAAGGGAAGAT
DNA 2: ATCTTCCCTTTAGATATGCACTCATTGTACACACGC
B15: GTGCAC_negctrl_site529 (dsDNA)
DNA 1: TTATTATATATGTTCACATAAATACATAAATATATA
DNA 2: TATATATTTATGTATTTATGTGAACATATATAATAA
B16: GTGCAC_negctrl_site353 (dsDNA)
DNA 1: GAATATTTATGATGAACTATTAATTAATTTTACATA
DNA 2: TATGTAAAATTAATTAATAGTTCATCATAAATATTC
B17: GTGCAC_negctrl_site517 (dsDNA)
DNA 1: TTTTGAAGTAACAAATAAATAAATAAATATATAAAA
DNA 2: TTTTATATATTTATTTATTTATTTGTTACTTCAAAA
B18: GTGCAC_negctrl_site258 (dsDNA)
DNA 1: AATATTTTGTTATTTATTTAATCTAATATTATGATA
DNA 2: TATCATAATATTAGATTAAATAAATAACAAAATATT
B19: GTGCAC_site9498 (dsDNA)
DNA 1: ATTTGTGATTTGTGTGTGCACGTATTTACAGAACAA
DNA 2: TTGTTCTGTAAATACGTGCACACACAAATCACAAAT
B20: GTGCAC_site9800 (dsDNA)
DNA 1: AATCATATTAGTATGGTGCAATATATATATAAATAT
DNA 2: ATATTTATATATATATTGCACCATACTAATATGATT
B21: GTGCAC_negctrl_site84 (dsDNA)
DNA 1: TTGAGCATAAAATTTGGAAACCTCAATCGGACAAAA
DNA 2: TTTTGTCCGATTGAGGTTTCCAAATTTTATGCTCAA
B22: GTGCAC_negctrl_site174 (dsDNA)
DNA 1: AAGAAAAAAAAAAAAAAAAAAAAAAAAAAGGAAAAA
DNA 2: TTTTTCCTTTTTTTTTTTTTTTTTTTTTTTTTTCTT
B23: GTGCAC_site10664 (dsDNA)
DNA 1: TATTCATATTTAAAGGTGCAATATTTATTTTGTACA
DNA 2: TGTACAAAATAAATATTGCACCTTTAAATATGAATA
B24: GTGCAC_negctrl_site721 (dsDNA)
DNA 1: GTTTTAAAATTAAATATTATGGCATAATTCAAGAAA
DNA 2: TTTCTTGAATTATGCCATAATATTTAATTTTAAAAC
B25: GTGCAC_negctrl_site127 (dsDNA)
DNA 1: ATATATACATATACTATATCTTTTATTTTTATTATT
DNA 2: AATAATAAAAATAAAAGATATAGTATATGTATATAT
B26: GTGCAC_negctrl_site223 (dsDNA)
DNA 1: AAAAGATTAAGTAGAATAATGTTCTTTCCCAACATA
DNA 2: TATGTTGGGAAAGAACATTATTCTACTTAATCTTTT
B27: GTGCAC_negctrl_site327 (dsDNA)
DNA 1: GCACACATATAATTAAACATATATTTGTATTATTTT
DNA 2: AAAATAATACAAATATATGTTTAATTATATGTGTGC
B28: GTGCAC_negctrl_site384 (dsDNA)
DNA 1: TTATAATGAAATATATTCTTATTCTTTTTTTTTTTT
DNA 2: AAAAAAAAAAAAGAATAAGAATATATTTCATTATAA
B29: GTGCAC_negctrl_site391 (dsDNA)
DNA 1: TTTTTTATTTTAATGTATTATTTTTATGTAATATAT
DNA 2: ATATATTACATAAAAATAATACATTAAAATAAAAAA
B30: GTGCAC_negctrl_site216 (dsDNA)
DNA 1: GGTAGATTATTATTAACGAAAAATGTTTTTAACATA
DNA 2: TATGTTAAAAACATTTTTCGTTAATAATAATCTACC
B31: GTGCAC_negctrl_site43 (dsDNA)
DNA 1: ATTTATAAAATATAATTACATTTTTAAATAATAAAA
DNA 2: TTTTATTATTTAAAAATGTAATTATATTTTATAAAT
B32: GTGCAC_negctrl_site586 (dsDNA)
DNA 1: ATATGATTATTATTATATAAATTATAAAGTCTAATA
DNA 2: TATTAGACTTTATAATTTATATAATAATAATCATAT
B33: GTGCAC_negctrl_site8 (dsDNA)
DNA 1: TTTTGTAGCAAAAAATAGGAAAAAAAAAAATTAAAT
DNA 2: ATTTAATTTTTTTTTTTCCTATTTTTTGCTACAAAA
B34: GTGCAC_negctrl_site217 (dsDNA)
DNA 1: TGACTTTGTTGAATTTGTCCTCTTAACTCATAATAT
DNA 2: ATATTATGAGTTAAGAGGACAAATTCAACAAAGTCA
B35: GTGCAC_negctrl_site296 (dsDNA)
DNA 1: ATTTAAAATAGAAGTTATATTTATATGGGTGAAAAA
DNA 2: TTTTTCACCCATATAAATATAACTTCTATTTTAAAT
B36: GTGCAC_negctrl_site86 (dsDNA)
DNA 1: ATTTTTTTATACAATTTTATATATTAAATATTATAA
DNA 2: TTATAATATTTAATATATAAAATTGTATAAAAAAAT
B37: GTGCAC_negctrl_site688 (dsDNA)
DNA 1: ATAATTATTTAATATATATATATTATTTCGAATGTT
DNA 2: AACATTCGAAATAATATATATATATTAAATAATTAT
B38: GTGCAC_negctrl_site334 (dsDNA)
DNA 1: TTTTTAATTAACTTTTTATAAATAAATAAAAATATA
DNA 2: TATATTTTTATTTATTTATAAAAAGTTAATTAAAAA
B39: GTGCAC_negctrl_site41 (dsDNA)
DNA 1: TCTTGATACAAACATTTAAATAAATAAATAAAAAAA
DNA 2: TTTTTTTATTTATTTATTTAAATGTTTGTATCAAGA
B40: GTGCAC_negctrl_site197 (dsDNA)
DNA 1: TTTTTAAAAAAGATAAGCGAAAGAATTAATTTTTAA
DNA 2: TTAAAAATTAATTCTTTCGCTTATCTTTTTTAAAAA
B41: GTGCAC_negctrl_site454 (dsDNA)
DNA 1: AAAAAAAAAGTATATATATATTTAAGGAATTCTCTC
DNA 2: GAGAGAATTCCTTAAATATATATATACTTTTTTTTT

biological target: AP2-I D3 (Plasmodium falciparum, UniProt Q8IJW6 910-1027); assay: gcPBM; about 25 ug protein; PBS, 1% milk, 0.2 mg/ml BSA, salmon testes DNA, 0.03% Triton X-100; conditions: tags: N-terminal GST (pGEX-4T-1), kept; label: surface-attached array probe

Row | Binder | binding signal
1 | B1 | 7.18 ln median PBM intensity, better of two orientations
2 | B2 | 7.24 ln median PBM intensity, better of two orientations
3 | B3 | 7.18 ln median PBM intensity, better of two orientations
4 | B4 | 7.16 ln median PBM intensity, better of two orientations
5 | B5 | 7.22 ln median PBM intensity, better of two orientations
6 | B6 | 6.85 ln median PBM intensity, better of two orientations
7 | B7 | 7.26 ln median PBM intensity, better of two orientations
8 | B8 | 6.7 ln median PBM intensity, better of two orientations
9 | B9 | 7.22 ln median PBM intensity, better of two orientations
10 | B10 | 7.28 ln median PBM intensity, better of two orientations
11 | B11 | 7.27 ln median PBM intensity, better of two orientations
12 | B12 | 7.28 ln median PBM intensity, better of two orientations
13 | B13 | 7.27 ln median PBM intensity, better of two orientations
14 | B14 | 10 ln median PBM intensity, better of two orientations
15 | B15 | 7.24 ln median PBM intensity, better of two orientations
16 | B16 | 6.76 ln median PBM intensity, better of two orientations
17 | B17 | 7.16 ln median PBM intensity, better of two orientations
18 | B18 | 6.98 ln median PBM intensity, better of two orientations
19 | B19 | 10.7 ln median PBM intensity, better of two orientations
20 | B20 | 12 ln median PBM intensity, better of two orientations
21 | B21 | 6.92 ln median PBM intensity, better of two orientations

Row | Binder | binding signal
22 | B22 | 7.21 ln median PBM intensity, better of two orientations
23 | B23 | 11.2 ln median PBM intensity, better of two orientations
24 | B24 | 7.22 ln median PBM intensity, better of two orientations
25 | B25 | 7.2 ln median PBM intensity, better of two orientations
26 | B26 | 7.05 ln median PBM intensity, better of two orientations
27 | B27 | 7.22 ln median PBM intensity, better of two orientations
28 | B28 | 7.14 ln median PBM intensity, better of two orientations
29 | B29 | 7.14 ln median PBM intensity, better of two orientations
30 | B30 | 7.18 ln median PBM intensity, better of two orientations
31 | B31 | 7.13 ln median PBM intensity, better of two orientations
32 | B32 | 6.95 ln median PBM intensity, better of two orientations
33 | B33 | 7.26 ln median PBM intensity, better of two orientations
34 | B34 | 7.06 ln median PBM intensity, better of two orientations
35 | B35 | 7.29 ln median PBM intensity, better of two orientations
36 | B36 | 7.23 ln median PBM intensity, better of two orientations
37 | B37 | 7.24 ln median PBM intensity, better of two orientations
38 | B38 | 7.2 ln median PBM intensity, better of two orientations
39 | B39 | 7.16 ln median PBM intensity, better of two orientations
40 | B40 | 7.16 ln median PBM intensity, better of two orientations
41 | B41 | 7.18 ln median PBM intensity, better of two orientations

biological target: T1, SIP2 D1; assay: as above; conditions: tags: N-terminal GST (pGEX-4T-1), kept; label: surface-attached array probe

Row | Binder | binding signal
42 | B4 | 6.72 ln median PBM intensity, better of two orientations
43 | B6 | 6.64 ln median PBM intensity, better of two orientations
44 | B8 | 6.7 ln median PBM intensity, better of two orientations
45 | B14 | 9.38 ln median PBM intensity, better of two orientations
46 | B16 | 6.72 ln median PBM intensity, better of two orientations
47 | B18 | 6.61 ln median PBM intensity, better of two orientations
48 | B19 | 9.78 ln median PBM intensity, better of two orientations
49 | B20 | 9.96 ln median PBM intensity, better of two orientations
50 | B21 | 6.59 ln median PBM intensity, better of two orientations
51 | B23 | 9.97 ln median PBM intensity, better of two orientations
52 | B26 | 6.44 ln median PBM intensity, better of two orientations
53 | B28 | 6.7 ln median PBM intensity, better of two orientations
54 | B29 | 6.72 ln median PBM intensity, better of two orientations
55 | B31 | 6.72 ln median PBM intensity, better of two orientations
56 | B32 | 6.69 ln median PBM intensity, better of two orientations
57 | B34 | 6.72 ln median PBM intensity, better of two orientations
